# Assay results: the Immune Epitope Database (IEDB)
# Assays:
# HLA-A*01:01 [1] = assay: IEDB peptide-MHC binding, purified MHC/competitive/fluorescence; ≥ and ≤ were set here for values at or beyond the usual limits of such assays
# HLA-A*11:01 [2] = assay: IEDB peptide-MHC binding, purified MHC/direct/fluorescence; filed as Kd, often an IC50 or EC50 that approximates it; ≥ and ≤ were set here for values at or beyond the usual limits of such assays
# HLA-B*07:02 [3] = assay: as above
# HLA-A*02:01 = assay: as above
# HLA-B*15:01 = assay: as above
# HLA-B*40:01 = assay: as above
# HLA-A*03:01 = assay: as above
# HLA-B*48:01 = assay: as above
# HLA-B*46:01 = assay: as above
# HLA-B*08:02 = assay: as above
# HLA-B*27:05 [4] = assay: as above
# HLA-A*68:02 = assay: as above
# HLA-A*69:01 = assay: as above
# HLA-A*01:01 [5] = assay: as above
# HLA-A*26:01 = assay: as above
# HLA-B*57:01 = assay: as above
# HLA-B*08:01 [6] = assay: as above; conditions: source organism: Giardia lamblia ATCC 50803
# HLA-B*08:03 = assay: as above
# HLA-B*58:01 = assay: as above
# HLA-A*31:01 = assay: as above
# HLA-B*15:17 [7] = assay: IEDB peptide-MHC binding, purified MHC/competitive/fluorescence; filed as Kd, often an IC50 or EC50 that approximates it; ≥ and ≤ were set here for values at or beyond the usual limits of such assays; conditions: source organism: Giardia lamblia ATCC 50803
# HLA-A*02:03 = assay: as above; conditions: source organism: Giardia lamblia ATCC 50803
# HLA-B*15:02 = assay: IEDB peptide-MHC binding, purified MHC/direct/fluorescence; filed as Kd, often an IC50 or EC50 that approximates it; ≥ and ≤ were set here for values at or beyond the usual limits of such assays
# HLA-A*26:03 = assay: as above
# HLA-B*15:17 [8] = assay: as above
# HLA-B*39:01 [9] = assay: as above; conditions: source organism: Bacillus anthracis str. A0389
# HLA-B*35:01 [10] = assay: as above; conditions: source organism: Bacillus anthracis str. A0389
# HLA-A*11:01 [11] = assay: IEDB peptide-MHC binding, purified MHC/competitive/fluorescence; filed as Kd, often an IC50 or EC50 that approximates it; ≥ and ≤ were set here for values at or beyond the usual limits of such assays; conditions: source organism: Bacillus anthracis str. A0389
# HLA-A*30:01 = assay: as above; conditions: source organism: Bacillus anthracis str. A0389
# HLA-B*18:01 = assay: IEDB peptide-MHC binding, purified MHC/direct/fluorescence; filed as Kd, often an IC50 or EC50 that approximates it; ≥ and ≤ were set here for values at or beyond the usual limits of such assays
# HLA-B*07:02 [12] = assay: IEDB peptide-MHC binding, purified MHC/competitive/fluorescence; filed as Kd, often an IC50 or EC50 that approximates it; ≥ and ≤ were set here for values at or beyond the usual limits of such assays; conditions: source organism: Giardia lamblia ATCC 50803
# HLA-B*08:01 [13] = assay: as above; conditions: source organism: Giardia lamblia ATCC 50803
# HLA-B*27:05 [14] = assay: IEDB peptide-MHC binding, purified MHC/competitive/fluorescence; ≥ and ≤ were set here for values at or beyond the usual limits of such assays
# HLA-B*44:02 = assay: IEDB peptide-MHC binding, purified MHC/direct/fluorescence; filed as Kd, often an IC50 or EC50 that approximates it; ≥ and ≤ were set here for values at or beyond the usual limits of such assays; conditions: source organism: Camelpox virus M-96
# HLA-B*15:09 = assay: IEDB peptide-MHC binding, purified MHC/competitive/fluorescence; filed as Kd, often an IC50 or EC50 that approximates it; ≥ and ≤ were set here for values at or beyond the usual limits of such assays
# HLA-B*39:01 [15] = assay: as above
# HLA-B*51:01 = assay: IEDB peptide-MHC binding, purified MHC/direct/fluorescence; filed as Kd, often an IC50 or EC50 that approximates it; ≥ and ≤ were set here for values at or beyond the usual limits of such assays; conditions: source organism: Mycobacterium tuberculosis
# HLA-A*26:02 = assay: as above; conditions: source organism: Variola virus
# HLA-B*35:01 [16] = assay: IEDB peptide-MHC binding, purified MHC/competitive/fluorescence; filed as Kd, often an IC50 or EC50 that approximates it; ≥ and ≤ were set here for values at or beyond the usual limits of such assays; conditions: source organism: Horsepox virus
# [17] = source organism: Vaccinia virus Copenhagen
# [18] = source organism: Giardia lamblia ATCC 50803
# [19] = source organism: Mycobacterium tuberculosis str. Haarlem
# [20] = source organism: Mycobacterium tuberculosis
# [21] = source organism: Bacillus anthracis
# [22] = source organism: Bacillus anthracis str. A0389
# [23] = source organism: Camelpox virus M-96
# [24] = source organism: Mycobacterium tuberculosis F11
# [25] = source organism: Corynebacterium efficiens YS-314
sequence,measurement,setting,value
LTDSLSSQM,IC50,HLA-A*01:01 [1]; [17],2.54 µM
IARLVYKAR,Kd,HLA-A*11:01 [2]; [18],≥ 20 µM
same,Kd,HLA-B*07:02 [3]; [18],≥ 20 µM
same,Kd,HLA-A*02:01; [18],≥ 20 µM
same,Kd,HLA-B*15:01; [18],≥ 20 µM
same,Kd,HLA-B*40:01; [18],≥ 20 µM
same,Kd,HLA-A*03:01; [18],≥ 20 µM
same,Kd,HLA-B*48:01; [18],≥ 20 µM
same,Kd,HLA-B*46:01; [18],≥ 20 µM
same,Kd,HLA-B*08:02; [18],≥ 20 µM
same,Kd,HLA-B*27:05 [4]; [18],≥ 20 µM
same,Kd,HLA-A*68:02; [18],≥ 20 µM
same,Kd,HLA-A*69:01; [18],≥ 20 µM
same,Kd,HLA-A*01:01 [5]; [18],≥ 20 µM
same,Kd,HLA-A*26:01; [18],≥ 20 µM
same,Kd,HLA-B*57:01; [18],≥ 20 µM
same,Kd,HLA-B*08:01 [6],≥ 20 µM
same,Kd,HLA-B*08:03; [18],≥ 20 µM
same,Kd,HLA-B*58:01; [18],≥ 20 µM
same,Kd,HLA-A*31:01; [18],0.0353 µM
same,Kd,HLA-B*15:17 [7],≥ 20 µM
same,Kd,HLA-A*02:03,≥ 20 µM
SMRFESSPH,Kd,HLA-B*07:02 [3]; [19],5.35 µM
same,Kd,HLA-B*15:01; [20],0.0093 µM
same,Kd,HLA-B*46:01; [20],15.5 µM
same,Kd,HLA-B*15:02; [19],0.049 µM
KLYVNGKAY,Kd,HLA-B*07:02 [3]; [21],≥ 20 µM
same,Kd,HLA-A*26:03; [22],≥ 20 µM
same,Kd,HLA-A*02:01; [21],≥ 20 µM
same,Kd,HLA-B*15:01; [21],0.298 µM
same,Kd,HLA-A*03:01; [21],0.032 µM
same,Kd,HLA-B*48:01; [21],≥ 20 µM
same,Kd,HLA-B*46:01; [21],6 µM
same,Kd,HLA-B*08:02; [22],≥ 20 µM
same,Kd,HLA-B*27:05 [4]; [21],≥ 20 µM
same,Kd,HLA-A*68:02; [21],≥ 20 µM
same,Kd,HLA-A*69:01; [21],≥ 20 µM
same,Kd,HLA-B*15:17 [8]; [21],0.0024 µM
same,Kd,HLA-A*01:01 [5]; [21],≥ 20 µM
same,Kd,HLA-A*26:01; [22],≥ 20 µM
same,Kd,HLA-B*57:01; [21],0.507 µM
same,Kd,HLA-B*39:01 [9],≥ 20 µM
same,Kd,HLA-B*15:02; [22],0.117 µM
same,Kd,HLA-B*58:01; [21],≥ 20 µM
same,Kd,HLA-A*31:01; [21],≥ 20 µM
same,Kd,HLA-B*35:01 [10],1.63 µM
same,Kd,HLA-A*11:01 [11],≥ 20 µM
same,Kd,HLA-A*30:01,0.4 µM
EIRHRSGIQ,Kd,HLA-A*11:01 [2]; [18],6.39 µM
same,Kd,HLA-A*26:03; [18],≥ 20 µM
same,Kd,HLA-A*02:01; [18],≥ 20 µM
same,Kd,HLA-B*15:01; [18],≥ 20 µM
same,Kd,HLA-B*40:01; [18],≥ 20 µM
same,Kd,HLA-A*03:01; [18],2 µM
same,Kd,HLA-B*48:01; [18],≥ 20 µM
same,Kd,HLA-B*46:01; [18],≥ 20 µM
same,Kd,HLA-B*18:01; [18],≥ 20 µM
same,Kd,HLA-B*27:05 [4]; [18],≥ 20 µM
same,Kd,HLA-A*68:02; [18],≥ 20 µM
same,Kd,HLA-A*69:01; [18],≥ 20 µM
same,Kd,HLA-B*15:17 [8]; [18],≥ 20 µM
same,Kd,HLA-A*01:01 [5]; [18],≥ 20 µM
same,Kd,HLA-B*57:01; [18],≥ 20 µM
same,Kd,HLA-B*08:03; [18],≥ 20 µM
same,Kd,HLA-B*58:01; [18],≥ 20 µM
same,Kd,HLA-A*31:01; [18],≥ 20 µM
same,Kd,HLA-B*07:02 [12],0.41 µM
same,Kd,HLA-B*08:01 [13],9 µM
QSEHSFEEM,IC50,HLA-A*01:01 [1]; source organism: Zaire ebolavirus,39.6 µM
GRATICGKY,IC50,HLA-B*27:05 [14]; source organism: hepatitis C virus genotype 1a,0.122 µM
WENGFKVVL,Kd,HLA-A*11:01 [2]; [23],≥ 20 µM
same,Kd,HLA-B*07:02 [3]; [23],≥ 20 µM
same,Kd,HLA-A*02:01; [23],≥ 20 µM
same,Kd,HLA-B*40:01; [23],0.004 µM
same,Kd,HLA-B*44:02,≥ 20 µM
same,Kd,HLA-B*48:01; [23],0.101 µM
same,Kd,HLA-B*18:01; [23],≤ 0.001 µM
same,Kd,HLA-B*27:05 [4]; [23],≥ 20 µM
same,Kd,HLA-A*68:02; [23],≥ 20 µM
same,Kd,HLA-A*69:01; [23],≥ 20 µM
same,Kd,HLA-B*15:17 [8]; [23],≥ 20 µM
same,Kd,HLA-A*01:01 [5]; [23],≥ 20 µM
same,Kd,HLA-B*57:01; [23],≥ 20 µM
same,Kd,HLA-B*58:01; [23],≥ 20 µM
same,Kd,HLA-A*31:01; [23],≥ 20 µM
same,Kd,HLA-B*15:09; [17],3.09 µM
same,Kd,HLA-B*39:01 [15]; [17],0.493 µM
MPRLSRNAA,Kd,HLA-A*11:01 [2]; [20],≥ 20 µM
same,Kd,HLA-A*02:01; [20],≥ 20 µM
same,Kd,HLA-B*15:01; [20],≥ 20 µM
same,Kd,HLA-B*40:01; [20],≥ 20 µM
same,Kd,HLA-A*03:01; [20],≥ 20 µM
same,Kd,HLA-B*48:01; [20],≥ 20 µM
same,Kd,HLA-B*46:01; [20],≥ 20 µM
same,Kd,HLA-B*51:01,0.655 µM
same,Kd,HLA-B*08:02; [24],≥ 20 µM
same,Kd,HLA-B*18:01; [20],8.28 µM
same,Kd,HLA-B*27:05 [4]; [20],≥ 20 µM
same,Kd,HLA-A*69:01; [20],≥ 20 µM
same,Kd,HLA-B*15:17 [8]; [20],≥ 20 µM
same,Kd,HLA-A*01:01 [5]; [20],≥ 20 µM
same,Kd,HLA-A*26:01; [24],≥ 20 µM
same,Kd,HLA-B*57:01; [20],≥ 20 µM
same,Kd,HLA-B*58:01; [20],≥ 20 µM
same,Kd,HLA-A*31:01; [20],≥ 20 µM
same,Kd,HLA-B*15:09; [25],≥ 20 µM
same,Kd,HLA-B*39:01 [15]; [25],0.25 µM
LLRDKDGVY,Kd,HLA-A*11:01 [2]; [23],≥ 20 µM
same,Kd,HLA-B*07:02 [3]; [23],≥ 20 µM
same,Kd,HLA-A*02:01; [23],≥ 20 µM
same,Kd,HLA-B*15:01; [23],0.0693 µM
same,Kd,HLA-B*48:01; [23],≥ 20 µM
same,Kd,HLA-B*46:01; [23],≥ 20 µM
same,Kd,HLA-B*27:05 [4]; [23],≥ 20 µM
same,Kd,HLA-A*68:02; [23],≥ 20 µM
same,Kd,HLA-A*69:01; [23],≥ 20 µM
same,Kd,HLA-B*15:17 [8]; [23],0.393 µM
same,Kd,HLA-A*01:01 [5]; [23],≥ 20 µM
same,Kd,HLA-A*26:01; source organism: Variola virus,≥ 20 µM
same,Kd,HLA-B*57:01; [23],≥ 20 µM
same,Kd,HLA-B*15:02; source organism: Variola virus,0.043 µM
same,Kd,HLA-B*08:03; source organism: Variola virus,≥ 20 µM
same,Kd,HLA-B*58:01; [23],≥ 20 µM
same,Kd,HLA-A*31:01; [23],≥ 20 µM
same,Kd,HLA-A*26:02,≥ 20 µM
same,Kd,HLA-B*35:01 [16],0.0677 µM
RLFPGLAIK,IC50,HLA-B*27:05 [14]; source organism: Homo sapiens,0.146 µM
